Measurements reported in patent US20060257938A1, “Method of screening for drugs that block ligand binding to a lipid binding protein” (priority 2005, published 2006).
“And” between values parts separate entries of the source, which are not always exact repeats. Equal entries are not always repeated.

B1: 38Y 74F 72A (protein, listed as Rattus norvegicus)
chain: AFDGTWKVDRNENYEKFMEKMGINVVKRKLGAHDNLKYTITQEGNKFTVKESSNFRNIDVVFELGVDFAYSAAFGTELTGTWTMEGNKLVGKFKRVDNGKELIAVREISGNELIQTYTYEGVEAKRIFKKE
modifications: PEPTIDE (1)...(131) wild-type rat intestinal fatty acid binding protein
B2: 73W 74I (protein, listed as Rattus norvegicus)
chain: AFDGTWKVDRNENYEKFMEKMGINVVKRKLGAHDNLKLTITQEGNKFTVKESSNFRNIDVVFELGVDFAYSLWIGTELTGTWTMEGNKLVGKFKRVDNGKELIAVREISGNELIQTYTYEGVEAKRIFKKE
modifications: PEPTIDE (1)...(131) wild-type rat intestinal fatty acid binding protein
B3: 73W 74T (protein, listed as Rattus norvegicus)
chain: AFDGTWKVDRNENYEKFMEKMGINVVKRKLGAHDNLKLTITQEGNKFTVKESSNFRNIDVVFELGVDFAYSLWTGTELTGTWTMEGNKLVGKFKRVDNGKELIAVREISGNELIQTYTYEGVEAKRIFKKE
modifications: PEPTIDE (1)...(131) wild-type rat intestinal fatty acid binding protein
B4: 18L 73V 72A (protein, listed as Rattus norvegicus)
chain: AFDGTWKVDRNENYEKFLEKMGINVVKRKLGAHDNLKLTITQEGNKFTVKESSNFRNIDVVFELGVDFAYSAVDGTELTGTWTMEGNKLVGKFKRVDNGKELIAVREISGNELIQTYTYEGVEAKRIFKKE
modifications: PEPTIDE (1)...(131) wild-type rat intestinal fatty acid binding protein
B5: L1P16G10: FABP probe, substitutions Y14W L72M Y117A vs SEQ ID NO: 2 (protein, listed as Rattus norvegicus)
chain: AFDGTWKVDRNENWEKFMEKMGINVVKRKLGAHDNLKLTITQEGNKFTVKESSNFRNIDVVFELGVDFAYSMADGTELTGTWTMEGNKLVGKFKRVDNGKELIAVREISGNELIQTATYEGVEAKRIFKKE
modifications: PEPTIDE (1)...(131) wild-type rat intestinal fatty acid binding protein
B6: L1P5A10: FABP probe, substitution Y117A vs SEQ ID NO: 2 (protein, listed as Rattus norvegicus)
chain: AFDGTWKVDRNENYEKFMEKMGINVVKRKLGAHDNLKLTITQEGNKFTVKESSNFRNIDVVFELGVDFAYSLADGTELTGTWTMEGNKLVGKFKRVDNGKELIAVREISGNELIQTATYEGVEAKRIFKKE
modifications: PEPTIDE (1)...(131) wild-type rat intestinal fatty acid binding protein
B7: L1P8D4: FABP probe, substitutions Y14M L72M Y117A vs SEQ ID NO: 2 (protein, listed as Rattus norvegicus)
chain: AFDGTWKVDRNENMEKFMEKMGINVVKRKLGAHDNLKLTITQEGNKFTVKESSNFRNIDVVFELGVDFAYSMADGTELTGTWTMEGNKLVGKFKRVDNGKELIAVREISGNELIQTATYEGVEAKRIFKKE
modifications: PEPTIDE (1)...(131) wild-type rat intestinal fatty acid binding protein
B8: L1P8H2: FABP probe, substitutions Y14M L38M L72W vs SEQ ID NO: 2 (protein, listed as Rattus norvegicus)
chain: AFDGTWKVDRNENMEKFMEKMGINVVKRKLGAHDNLKMTITQEGNKFTVKESSNFRNIDVVFELGVDFAYSWADGTELTGTWTMEGNKLVGKFKRVDNGKELIAVREISGNELIQTYTYEGVEAKRIFKKE
modifications: PEPTIDE (1)...(131) wild-type rat intestinal fatty acid binding protein
B9: L1P7H4: FABP probe, substitutions Y14I L38M L72W vs SEQ ID NO: 2 (protein, listed as Rattus norvegicus)
chain: AFDGTWKVDRNENIEKFMEKMGINVVKRKLGAHDNLKMTITQEGNKFTVKESSNFRNIDVVFELGVDFAYSWADGTELTGTWTMEGNKLVGKFKRVDNGKELIAVREISGNELIQTYTYEGVEAKRIFKKE
modifications: PEPTIDE (1)...(131) wild-type rat intestinal fatty acid binding protein
B10: L1P1C3: FABP probe, substitutions Y14M L72W vs SEQ ID NO: 2 (protein, listed as Rattus norvegicus)
chain: AFDGTWKVDRNENMEKFMEKMGINVVKRKLGAHDNLKLTITQEGNKFTVKESSNFRNIDVVFELGVDFAYSWADGTELTGTWTMEGNKLVGKFKRVDNGKELIAVREISGNELIQTYTYEGVEAKRIFKKE
modifications: PEPTIDE (1)...(131) wild-type rat intestinal fatty acid binding protein
B11: L1P17A1: FABP probe, substitutions Y14I L72W vs SEQ ID NO: 2 (protein, listed as Rattus norvegicus)
chain: AFDGTWKVDRNENIEKFMEKMGINVVKRKLGAHDNLKLTITQEGNKFTVKESSNFRNIDVVFELGVDFAYSWADGTELTGTWTMEGNKLVGKFKRVDNGKELIAVREISGNELIQTYTYEGVEAKRIFKKE
modifications: PEPTIDE (1)...(131) wild-type rat intestinal fatty acid binding protein

How the values were obtained:
Assay type in all cases: binding
[1] = Probe fluorescence ratio response to palmitic acid relative to ADIFAB2; conditions: for DR/DR PA: response relative to ADIFAB2; for ΔR/DRAΔ2 PA: Table 4
How it was run: (§1)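 Each fatty acid's response was expressed relative to ADIFAB2, the rI-FABP-L72A probe, as ΔR/ΔRreference. ΔR is the change in the background-corrected two-wavelength intensity ratio R=Fλ1/Fλ2 from its analyte-free baseline R0. Emission was read near about 420-480 nm for unbound and about 495-580 nm for FFA-bound probe.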

[2] = Probe fluorescence ratio response to palmitoleic acid relative to ADIFAB2; conditions: response relative to ADIFAB2
Excerpt: (§2) In an alternate preferred embodiment, the protein is rI-FABP that has Ala substituted for Leu at position 72 (rI-FABP-L72A) with the resulting probe named ADIFAB2. […] Other probes useful in embodiments of the invention are shown in Tables 1-6 and are also described in U.S. application Ser. No. 11/085,792, filed Mar. 21, 2005 which is incorporated herein by reference. The indicated substitutions are with reference to the ADIFAB protein of SEQ ID NO: 2.
(§3) ADIFAB2 also has an altered spectral response, making it especially useful for measurements of FFAu in blood samples (Apple et al, Clinical Proteomics, (2004) 1:41-44, U.S. patent application Ser. No. 10/670,958). The wavelengths at the maximum intensities emitted by these fluorescently-labeled I-FABP's in the absence of FFA is about 420 to 480 nm. The emission wavelengths at the maximum intensities emitted by these fluorescently-labeled I-FABP's with FFA bound are between about 495 to 580 nm. Experiments typically involve measuring the fluorescence response within both emission maxima or at wavelengths for which the effect of interfering molecules such as hemoglobin can be eliminated as described in U.S. application Ser. No. 10/670958 and PCT/US2004/030521 and the calculation of the ratio ‘R’ of the two fluorescence intensities. The baseline value for this ratio, measured in the absence of analyte, is designated R0.
(§4) The intensity ratio (“R” value) is determined as follows. The ratio is calculated using the following formula: R=Fλ1/Fλ2 wherein, Fλ1 is the measured fluorescence intensities (intensity of sample with probe present minus intensity of sample without probe present) at wavelength 1 and Fλ2 is the measured fluorescence intensities (intensity of sample with probe present minus intensity of sample without probe present) at wavelength 2. Then, for a given probe, ΔR, the difference in R value between the measurement in the presence of the test compound (agent) and in the absence of the test compound (agent), is calculated as follows: ΔR=R+agent−R0 In some embodiments, the ΔR value may then be compared to some reference, for example, an agent with a known affinity for a given probe, by ΔR/ΔRreference. Measurements of fluorescence intensities are obtained using standard techniques.

[3] = Probe fluorescence ratio response to arachidonic acid relative to ADIFAB2; conditions: for DR/DR AA: arachidonic acid, response relative to ADIFAB2; for ΔR/DRAΔ2 AA: Table 4, Arachidonic acid
How it was run: as §1

[4] = Probe fluorescence ratio response to linoleic acid relative to ADIFAB2; conditions: for DR/DR LA: response relative to ADIFAB2; for ΔR/DRAΔ2 LA: Table 4
How it was run: as §1

[5] = Probe fluorescence ratio response to linolenic acid relative to ADIFAB2; conditions: for DR/DR LNA: response relative to ADIFAB2; for ΔR/DRAΔ2 LNA: Table 4
How it was run: as §1

[6] = Probe fluorescence ratio response to stearic acid relative to ADIFAB2; conditions: response relative to ADIFAB2
Excerpt: as §2, §3, §4

[7] = Probe fluorescence ratio response to oleic acid relative to ADIFAB2; conditions: for DR/DR OA: response relative to ADIFAB2; for ΔR/DRAΔ2 OA: Table 4
How it was run: as §1

Molecule | DR/DR PA [1] | DR/DR POA [2] | DR/DR AA [3] | DR/DR LA [4] | DR/DR LNA [5] | DR/DR SA [6] | DR/DR OA [7] | ΔR/DRAΔ2 PA [1] | ΔR/DRAΔ2 AA [3] | ΔR/DRAΔ2 LA [4] | ΔR/DRAΔ2 LNA [5] | ΔR/DRAΔ2 OA [7]
B1 | 1.397 | 1.514 | 0.605 | 0.926 | 1.166 | 0.362 | 0.646 | – | – | – | – | –
B2 | 1.884 | 2.697 | 0.757 | 1.130 | 1.325 | 0.423 | 0.912 | – | – | – | – | –
B3 | 3.883 | 5.818 | 1.456 | 2.480 | 3.286 | 0.726 | 1.902 | – | – | – | – | –
B4 | – | – | 0.615 and 0.475 | – | – | 0.359 and 0.427 | – | – | – | – | – | –
B5 | – | – | – | – | – | – | – | 0.8 | 0.9 | 1.1 | 1.3 | 0.7
B6 | – | – | – | – | – | – | – | 0.4 | 1.5 | 1.2 | 0.7 | 1.1
B7 | – | – | – | – | – | – | – | 0.9 | 1.6 | 2.0 | 2.0 | 1.1
B8 | – | – | – | – | – | – | – | −0.6 | −1.3 | −1.5 | −1.3 | −1.7
B9 | – | – | – | – | – | – | – | −0.6 | −1.0 | −1.3 | −1.1 | −1.4
B10 | – | – | – | – | – | – | – | −0.4 | −0.9 | −1.1 | −1.0 | −1.3
B11 | – | – | – | – | – | – | – | −0.4 | −0.8 | −1.0 | −0.9 | −1.2
